Changes are numbered by the printed parent chain. In names and notes the source's numbering stands.

This is an account of results in patent US20230340152A1 (published 2023).

In experiment [1] the target is T1, Human CD73 ECD (human, UniProt P21589 27-549).
T1 sequence: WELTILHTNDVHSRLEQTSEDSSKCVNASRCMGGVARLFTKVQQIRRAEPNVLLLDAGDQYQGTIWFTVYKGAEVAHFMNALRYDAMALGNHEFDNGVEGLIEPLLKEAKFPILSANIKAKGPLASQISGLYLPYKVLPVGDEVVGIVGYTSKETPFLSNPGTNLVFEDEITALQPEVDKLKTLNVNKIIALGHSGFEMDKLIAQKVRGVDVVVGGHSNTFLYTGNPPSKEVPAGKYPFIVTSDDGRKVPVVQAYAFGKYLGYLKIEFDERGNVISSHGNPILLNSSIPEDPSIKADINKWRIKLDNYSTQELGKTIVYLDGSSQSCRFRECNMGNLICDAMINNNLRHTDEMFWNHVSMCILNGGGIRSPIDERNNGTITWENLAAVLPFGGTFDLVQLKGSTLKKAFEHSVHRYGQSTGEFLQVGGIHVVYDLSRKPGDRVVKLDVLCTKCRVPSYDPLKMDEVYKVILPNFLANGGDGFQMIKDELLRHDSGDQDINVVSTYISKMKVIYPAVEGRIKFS
Put plainly: cell-based or functional assay.

For experiment [2], the target named is T2, Human CD73 on cells (MDA-MB-231, Jurkat CD73 knock-in, NCI-H322) (human, UniProt P21589 27-549).
T2 sequence: T1 sequence
Put plainly: cell-based or functional assay.

The target in experiment [3] is T1, Human CD73 ECD. Put plainly: SPR (Proteon).
Experiment [4] addresses T3, Cynomolgus CD73 ECD (cynomolgus, UniProt A0A2K5V5U7 27-549).
T3 construct: extracellular domain; also called cyno CD73
T3 sequence: T1 sequence with M199T, T350A, V466I
Put plainly: SPR (Proteon).

Experiment [5] deals with T4, Murine CD73 ECD (murine, UniProt Q61503 29-551, limits assumed).
T4 construct: extracellular domain; In-house recombinant ECD; also called murine CD73 extracellular domain; muCD73
T4 sequence (looked up): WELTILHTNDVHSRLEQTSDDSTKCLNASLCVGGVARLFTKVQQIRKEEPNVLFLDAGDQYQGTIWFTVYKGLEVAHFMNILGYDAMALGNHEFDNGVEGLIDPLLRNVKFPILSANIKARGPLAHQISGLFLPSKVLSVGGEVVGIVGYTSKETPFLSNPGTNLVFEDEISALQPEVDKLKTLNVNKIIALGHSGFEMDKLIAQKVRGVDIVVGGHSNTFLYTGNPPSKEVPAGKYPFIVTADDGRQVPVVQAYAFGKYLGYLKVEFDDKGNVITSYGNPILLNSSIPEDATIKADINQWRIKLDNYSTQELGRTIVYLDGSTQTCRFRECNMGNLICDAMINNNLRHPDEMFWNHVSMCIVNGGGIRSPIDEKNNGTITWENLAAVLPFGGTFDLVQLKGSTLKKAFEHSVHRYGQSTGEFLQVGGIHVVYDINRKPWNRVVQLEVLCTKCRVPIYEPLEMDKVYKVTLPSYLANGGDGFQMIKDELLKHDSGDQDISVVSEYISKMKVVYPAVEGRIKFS
Put plainly: SPR (Proteon).

For experiment [6], the target named is T1, Human CD73 ECD. Put plainly: binding assay, format not stated.
Experiment [7] concerns the target T3, Cynomolgus CD73 ECD. Put plainly: binding assay, format not stated.
Experiment [8] addresses T4, Murine CD73 ECD. Put plainly: binding assay, format not stated.
Experiment [9] concerns the target CD73 (species and format not stated). Put plainly: binding assay not stated.
Experiment [10] concerns the target T2, Human CD73 on cells (MDA-MB-231, Jurkat …). Put plainly: flow cytometry on cells. On the technique in general: Flow cytometry measures light scatter and fluorescence of single cells or particles in a stream.
Experiment [11] deals with T5, Murine CD73 on cells (4T1, Jurkat mCD73 knock-in) (murine, UniProt Q61503 29-551).
T5 construct: whole, on cells; also called 4T1 (murine)
T5 sequence (looked up): T4 sequence (looked up)
Put plainly: flow cytometry on cells.

The target in experiment [12] is T6, Cynomolgus CD73 on MK-1 cells (cynomolgus, UniProt A0A2K5V5U7 27-549).
T6 construct: whole, on cells; also called MK-1 (cyno)
T6 sequence: T1 sequence with M199T, T350A, V466I
Put plainly: flow cytometry on cells.

Experiment [13] deals with T1, Human CD73 ECD. Put plainly: capture ELISA and direct ELISA, normalized Fab supernatants.
Experiment [14] has as its target T4, Murine CD73 ECD. The experiment is described as above.
The target of experiment [15] is T2, Human CD73 on cells (MDA-MB-231, Jurkat …). Put plainly: cell-based or functional assay. The source holds these as a separate data set.
Experiment [16] addresses T5, Murine CD73 on cells (4T1, Jurkat mCD73 …). Put plainly: cell-based or functional assay.
Experiment [17] has as its target T1, Human CD73 ECD. Put plainly: binding to recombinant human CD73 by flow cytometry, IgG1-TM.
Experiment [18] deals with T4, Murine CD73 ECD. Put plainly: binding to recombinant murine CD73 by flow cytometry, IgG1-TM.
The target of experiment [19] is T2, Human CD73 on cells (MDA-MB-231, Jurkat …). Put plainly: flow cytometry on MDA-MB-231 cells, IgG from 293F cells.

B1: CD730010 (antibody, V domains shown)
VH: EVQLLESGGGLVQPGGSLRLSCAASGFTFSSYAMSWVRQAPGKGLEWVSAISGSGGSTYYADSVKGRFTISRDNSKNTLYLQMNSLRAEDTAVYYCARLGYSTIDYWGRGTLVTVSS
VL: LPVLTQPPSVSGTPGQRVTISCSGSLSNIGRNPVNWYKQVPGTAPKLLIYLNNQRPSGVPDRFSGSKSGTSASLAISGLQSEDEADYYCATWDDSLNGWLFGGGTKLTVL
notes: IgG1-TM format (L234F, L235E, P331S); also called CD730010 antibody; clone 10
Take B1: in the experiment with Human CD73 ECD [1], the “Enzyme Inhibition, rCD73, 1/EC50 (nM)” value amounted to 0.0062 nM⁻¹. Also, in experiment [2], the “Enzyme Inhibition, MDA-MB-231, 1/EC50 (nM)” value was 0.33 nM⁻¹. For the same molecule, the “Internalization, MDA-MB-231, 1/EC50 (nM)” value in [2] is 0.0062 nM⁻¹. Moreover, the Kd – broadly, a measure of binding affinity in units of concentration – in the experiment with Human CD73 ECD [3] turned out to be 3.58 nM; in the experiment with Cynomolgus CD73 ECD [4] it was 1.92 nM; with Murine CD73 ECD [5], 2.47 nM; in experiment [10] it was 8 nM; in experiment [11], 6.1 nM. Also, the 1/EC50 in the experiment with Human CD73 ECD [6] came out at 0.0034 nM⁻¹; with Cynomolgus CD73 ECD [7], 0.0033 nM⁻¹; with Murine CD73 ECD [8], 0.0024 nM⁻¹. Besides, in [9], a half-maximal response (EC50) required 69 nM.

B2: C1 (IgG1-TM) (antibody, V domains shown)
VH: EVQLLESGGGLVQPGGSLRLSCAASGFTFSSYAYSWVRQAPGKGLEWVSAISGSGGSTYYADSVKGRFTISRDNSKNTLYLQMNSLRAEDTAVYYCARLGYSTIDKWGRGTLVTVSS
VL: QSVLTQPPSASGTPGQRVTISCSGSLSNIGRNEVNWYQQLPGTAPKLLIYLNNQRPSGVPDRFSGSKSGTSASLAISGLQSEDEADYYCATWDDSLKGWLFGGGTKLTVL
notes: IgG1-TM format; also called clone 10 C1
Consider B2, for which the Kd with Human CD73 ECD [3] amounted to 0.029 nM; with Cynomolgus CD73 ECD [4] it was 0.012 nM; with Murine CD73 ECD [5] it was 0.006 nM; in experiment [10] it was 0.179 nM; in [11], 0.095 nM; in [12], 0.16 nM.

B3: Clone D3 Fab (Fab, V domains shown)
VH: B2 VH with S57R, K106L
VL: B1 VL with L1Q, P2S, V10A, K38Q, V40L, N52D, Q54L, P56L, N97I
notes: Bacterial Fab from the combinatorial library
Consider B3, for which the binding result with Human CD73 ECD [13] and in the experiment with Murine CD73 ECD [14] was “binds” throughout.

B4: CD730002 (antibody, V domains shown)
VH: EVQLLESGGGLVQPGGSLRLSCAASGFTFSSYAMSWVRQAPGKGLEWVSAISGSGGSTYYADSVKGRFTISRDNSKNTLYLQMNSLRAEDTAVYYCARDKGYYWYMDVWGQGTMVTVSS
VL: QSVLTQPPSVSVSPGQTATITCSGDKVGDKYASWYQQKPGQSPVLVIYEDTKRPSRIPERFSGSNSGNTATLTISGTQALDEADYFCQAWDTSFWVFGGGTKLTVL
notes: IgG1-TM format; also called CD730002 antibody; clone 2
For the molecule B4, the “Enzyme Inhibition, rCD73, 1/EC50 (nM)” value with Human CD73 ECD [1] is 0.021 nM⁻¹. Also, in [2], the “Enzyme Inhibition, MDA-MB-231, 1/EC50 (nM)” value came to 12 nM⁻¹. Also, in experiment [2], the “Internalization, MDA-MB-231, 1/EC50 (nM)” value was 0.021 nM⁻¹. Besides, the Kd with Human CD73 ECD [3] came to 0.007 nM; with Cynomolgus CD73 ECD [4], 0.015 nM; with Murine CD73 ECD [5], 0.04 nM; in experiment [10], 0.052 nM; in [11], 0.05 nM; in experiment [12], 0.052 nM. The “FabZAP internalization, EC50, MDA-MB-231” value in experiment [15] is 0.0071 nM. Further, the “FabZAP internalization, maximum toxicity, MDA-MB-231” value in [15] amounted to 95%. In experiment [16], the “FabZAP internalization, EC50, 4T1” value amounted to 0.206 nM. For the same molecule, the “FabZAP internalization, maximum toxicity, 4T1” value in experiment [16] was 83%. For the same molecule, the 1/EC50 in the experiment with Human CD73 ECD [6] was 0.1 nM⁻¹; with Cynomolgus CD73 ECD [7], 0.2 nM⁻¹; in the experiment with Murine CD73 ECD [8] it was 0.024 nM⁻¹.

B5: CD730002 SGMY (antibody, IgG1, V domains shown)
VH: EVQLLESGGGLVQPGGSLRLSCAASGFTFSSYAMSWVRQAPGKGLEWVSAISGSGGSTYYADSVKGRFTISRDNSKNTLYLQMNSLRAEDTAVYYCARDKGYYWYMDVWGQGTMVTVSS
VL: B4 VL with T19S, R56G, L80M, F86Y
notes: IgG1-TM; non-germlined VH, fully germlined VL (S20, G57, M81, Y87); also called Clone 2 SGMY
As for B5, the binding result in the experiment with Human CD73 ECD [17] and with Murine CD73 ECD [18] was “binds” each time.

B6: CD730002 2C5 (antibody, V domains shown)
VH: EVQLLESGGGLVQPGGSLRLSCAASGFTFSSYAMSWVRQAPGKGLEWVSAISGSGGSTYYADSVKRRFTISRDNSKNTLYLQMNSLRAEDTAVYYCARDKGYYWYMDVWGQGTMVTVSS
VL: B4 VL with T19S, P54L, R56G, L80M, F86Y
notes: IgG1-TM format; also called clone 2C5 antibody
As for B6, the “fold lower EC50 than parental CD730002SGMY” value in experiment [19] turned out to be 3 fold. Moreover, the Kd with Human CD73 ECD [3] turned out to be 0.009 nM; with Cynomolgus CD73 ECD [4] it was 0.009 nM; with Murine CD73 ECD [5], 0.022 nM; in experiment [10], 0.084 nM; in [11] it was 0.055 nM; in [12], 0.063 nM. For the same molecule, the “FabZAP internalization, EC50, MDA-MB-231” value in experiment [15] is 0.0091 nM. Also, in [15], the “FabZAP internalization, maximum toxicity, MDA-MB-231” value came out at 98%. Besides, the “FabZAP internalization, EC50, 4T1” value in [16] was found to be 0.173 nM. The “FabZAP internalization, maximum toxicity, 4T1” value in experiment [16] was determined as 82%.

B7: 73combo1 (C1+GRVE+HPT) (antibody, V domains shown)
VH: B2 VH with S102G, T103R, I104V, K106E
VL: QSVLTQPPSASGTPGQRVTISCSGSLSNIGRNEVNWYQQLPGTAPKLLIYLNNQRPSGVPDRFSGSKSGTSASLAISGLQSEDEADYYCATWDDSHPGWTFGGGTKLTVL
notes: IgG1-TM format; also called 73combol; clone 10 combo1
As for B7, the Kd was found to be 0.007 nM in the experiment with Human CD73 ECD [3]; 0.008 nM with Cynomolgus CD73 ECD [4]; 0.002 nM in the experiment with Murine CD73 ECD [5]; 0.157 nM in experiment [10]; 0.15 nM in experiment [11]; 0.09 nM in experiment [12]. Also, the “FabZAP internalization, EC50, MDA-MB-231” value in [15] worked out at 0.0038 nM. Further, in experiment [15], the “FabZAP internalization, maximum toxicity, MDA-MB-231” value came to 97%. Besides, the “FabZAP internalization, EC50, 4T1” value in experiment [16] was 0.0331 nM. Further, the “FabZAP internalization, maximum toxicity, 4T1” value in [16] was found to be 97%.
